From paper PMC11764028 (Bioactive Materials, 2025)

Biological target: the molecule itself
Assay: SEC + native gel or EMSA

B1: dual-functional fusion protein KFS (KALA peptide - human ferritin light chain - SIINFEKL) (other)
chain: WEAKLAKALAKALAKHLAKALAKALKAIRQNYSTDVEAAVNSLVNLYLQASYTYLSLGFYFDRDDVALEGVSHFFRELAEEKREGYERLLKMQNQRGGRALFQDIKKPAEDEWGKTPDAMKAAMALEKKLNQALLDLHALGSARTDPHLCDFLETHFLDEEVKLIKKMGDHLTNLHRGGGGSGGGGSGGGGSSIINFEKL
- stoichiometry N: 40
